For six proteins, Km, Vmax and kcat results are on record in PMC3846777, “Characteristics and Function of Sulfur Dioxygenase in Echiuran Worm Urechis unicinctus” (PLoS ONE, 2013).

Holding throughout (experiment): oxygen consumption, Clark-type oxygen electrode (Oxytherm)
Common to all, as to type: biochemical, Urechis unicinctus
Holding throughout (settings): 0.1 M potassium phosphate pH 7.4, 25°C, O2 co-substrate, GSS^− prepared from GSH and acetonic sulfur

Substrate in data set [1]: N[C@@H](CCC(=O)N[C@@H](CSS)C(=O)NCC(=O)O)C(=O)O
An excerpt: oxygen consumption, Clark-type oxygen electrode (Oxytherm) on Del-2

Substrate in data set [2]: N[C@@H](CCC(=O)N[C@@H](CSS)C(=O)NCC(=O)O)C(=O)O
This is another data set of the same source.

Substrate in data set [3]: N[C@@H](CCC(=O)N[C@@H](CSS)C(=O)NCC(=O)O)C(=O)O
An excerpt:
oxygen consumption, Clark-type oxygen electrode (Oxytherm) on U. unicinctus SDO (complete ORF, wild type)
This is another data set of the same source.

Substrate in data set [4]: N[C@@H](CCC(=O)N[C@@H](CSS)C(=O)NCC(=O)O)C(=O)O
An excerpt:
oxygen consumption, Clark-type oxygen electrode (Oxytherm) on Del-3
The source holds these as a separate data set.

Substrate in data set [5]: N[C@@H](CCC(=O)N[C@@H](CSS)C(=O)NCC(=O)O)C(=O)O
An excerpt:
oxygen consumption, Clark-type oxygen electrode (Oxytherm) on Del-4
This is another data set of the same source.

Substrate in data set [6]: N[C@@H](CCC(=O)N[C@@H](CSS)C(=O)NCC(=O)O)C(=O)O
An excerpt: oxygen consumption, Clark-type oxygen electrode (Oxytherm) on Del-1
The source holds these as a separate data set.

Positions count from the first letter of the chain named. Names and notes keep the numbering of the source.

B1: Del-2 (Urechis unicinctus) (protein)
chain: MLSSVCGSLRRTLCNGSVLASKHPFLGRSNALKLETKPVCTRVMYRSYSANMHGQEVVFRQLFDNTSFTYTYLLGDAASKEAVLIDPVIELVDRDVRIVKELGLNLKYAVNTHVHADHVTGTGEIKKRIPTCKSVIAECSQAKADVFINEGDGIEFGQF
notes: C-terminally truncated SDO, 477 bp from the start codon (159 residues, end calculated from printed size)
By Km is commonly meant the concentration of substrate that gives half-maximal velocity. Usually Vmax stands for the top rate of the reaction or transport when substrate is in excess. As usually defined, the kcat is the number of substrate molecules converted per active site and unit of time at saturation. For the protein B1, in data set [1], the Michaelis constant (Km) came out at 137.0 ± 17.2 µM, the Vmax amounted to 0.42 ± 0.024 µmol/min/mg and the kcat stood at 0.16 s⁻¹.

B2: U. unicinctus SDO (complete ORF, wild type) (Urechis unicinctus; D117E/H118A) (protein)
chain: MLSSVCGSLRRTLCNGSVLASKHPFLGRSNALKLETKPVCTRVMYRSYSANMHGQEVVFRQLFDNTSFTYTYLLGDAASKEAVLIDPVIELVDRDVRIVKELGLNLKYAVNTHVHAEAVTGTGEIKKRIPTCKSVIAECSQAKADVFINEGDGIEFGQFKLECRSTPGHTDGCFTYVWHEKGMAFTGDALLIRGCGRTDFQQGSSEALYKSVHGKILSLPEQFILYPAHDYTGQTSTTVREEKNHNPRLTKPIDVFIRIMSELNLPYPKQLDRALPANMVCGIFDTESPPSKS
For B2, the Km in data set [2] worked out at 174.4 ± 16.8 µM.

B3: U. unicinctus SDO (complete ORF, wild type) (Urechis unicinctus) (protein)
chain: B2 chain with E117D, A118H
For the protein B3, in data set [3], the Km came to 82.5 ± 9.9 µM, the Vmax stood at 1.74 ± 0.081 µmol/min/mg and the catalytic constant (kcat) was 1.09 s⁻¹.

B4: Del-3 (Urechis unicinctus) (protein)
chain: MLSSVCGSLRRTLCNGSVLASKHPFLGRSNALKLETKPVCTRVMYRSYSANMHGQEVVFRQLFDNTSFTYTYLLGDAASKEAVLIDPVIELVDRDVRIVKELGLNLKYAVNTHVHADHVTGTGEIKKRIPTCKSVIAECSQAKADVFINEGDGIEFGQFKLECRSTPGHTDGCFTYVWHEKGMAFTGDALLIRGCGRTDFQQGSS
notes: C-terminally truncated SDO, 615 bp from the start codon (205 residues, end calculated from printed size)
As for B4, in data set [4], the Michaelis-Menten constant (Km) was found to be 104.6 ± 16.7 µM, the Vmax was 0.98 ± 0.065 µmol/min/mg and the turnover number (kcat) was determined as 0.45 s⁻¹.

B5: Del-4 (Urechis unicinctus) (protein)
chain: MLSSVCGSLRRTLCNGSVLASKHPFLGRSNALKLETKPVCTRVMYRSYSANMHGQEVVFRQLFDNTSFTYTYLLGDAASKEAVLIDPVIELVDRDVRIVKELGLNLKYAVNTHVHADHVTGTGEIKKRIPTCKSVIAECSQAKADVFINEGDGIEFGQFKLECRSTPGHTDGCFTYVWHEKGMAFTGDALLIRGCGRTDFQQGSSEALYKSVHGKILSLPEQFILYPAHDYTGQTSTTVREEKNHNPRLTKPI
notes: C-terminally truncated SDO, 759 bp from the start codon
Turning to B5, in data set [5], the Km turned out to be 83.0 ± 10.9 µM, the Vmax was 1.23 ± 0.063 µmol/min/mg and the kcat was 0.68 s⁻¹.

B6: Del-1 (Urechis unicinctus) (protein)
chain: MLSSVCGSLRRTLCNGSVLASKHPFLGRSNALKLETKPVCTRVMYRSYSANMHGQEVVFRQLFDNTSFTYTYLLGDAASKEAVLIDPVIELVDRDVRIVKELGLNL
notes: C-terminally truncated SDO, 318 bp from the start codon (106 residues, end calculated from printed size), lacks all metal sites
In the case of B6, in data set [6], the Km was 218.9 ± 33.5 µM, the maximal velocity (Vmax) worked out at 0.33 ± 0.014 µmol/min/mg and the kcat was determined as 0.09 s⁻¹.
